Results from patent US20160137744A1 (ONCOMED PHARMACEUTICALS, published 2016).
Like-named read-outs stand apart in the source and are kept apart here. One block for each molecule: values may come before it.

Tests used:
[1] = target: T1, human MET (soluble analyte in Biacore) (human, UniProt P08581 25-932); assay: SPR (Biacore 2000), antibody captured by anti-human antibody, human MET injected
Protocol: (§1) The KD of monovalent version of 73R009, monovalent anti-MET antibody 5D5, and anti-MET/FZD8-Fc bispecific agent 315B6 were determined using a Biacore 2000 system from Biacore LifeSciences (GE Healthcare). A goat anti-human antibody (Invitrogen H10500) was coupled to a carboxymethyl-dextran (CM5) SPR chip using standard amine-based chemistry (NHS/EDC) and blocked with ethanolamine. Antibodies were diluted to a concentration of 10 μg/ml in HBS-P-BSA (0.01M HEPES pH7.4, 0.15M NaCl, 0.005% v/v Polysorbate 20, 10 μg/ml BSA) and captured onto the chip via the anti-human antibody. Human MET was serially diluted 2-fold from 300 nM to 37.5 nM in HBS-P-BSA and injected sequentially over the captured anti-MET antibodies. MET association and dissociation was measured at each concentration. After each antigen injection 5 μl of 100 mM H₃PO₄ was injected to remove the antigen-antibody complex and a subsequent injection performed. Kinetic data were collected over time and were fit using the simultaneous global fit equation to yield affinity constants (KD values) for each agent.
(§2) In addition, the bispecific agent 315B6 appeared to have stronger affinity for human MET than anti-MET antibody 5D5.

[2] = target: full-length human MET (FL-MET) on cells (human) (UniProt P08581); assay: FACS competition, biotin-HGF on MET-transfected HEK-293T cells; antibody at 0.16 µg/ml
Chain of full-length human MET (FL-MET) on cells (human) (P08581 25-1390 limits assumed): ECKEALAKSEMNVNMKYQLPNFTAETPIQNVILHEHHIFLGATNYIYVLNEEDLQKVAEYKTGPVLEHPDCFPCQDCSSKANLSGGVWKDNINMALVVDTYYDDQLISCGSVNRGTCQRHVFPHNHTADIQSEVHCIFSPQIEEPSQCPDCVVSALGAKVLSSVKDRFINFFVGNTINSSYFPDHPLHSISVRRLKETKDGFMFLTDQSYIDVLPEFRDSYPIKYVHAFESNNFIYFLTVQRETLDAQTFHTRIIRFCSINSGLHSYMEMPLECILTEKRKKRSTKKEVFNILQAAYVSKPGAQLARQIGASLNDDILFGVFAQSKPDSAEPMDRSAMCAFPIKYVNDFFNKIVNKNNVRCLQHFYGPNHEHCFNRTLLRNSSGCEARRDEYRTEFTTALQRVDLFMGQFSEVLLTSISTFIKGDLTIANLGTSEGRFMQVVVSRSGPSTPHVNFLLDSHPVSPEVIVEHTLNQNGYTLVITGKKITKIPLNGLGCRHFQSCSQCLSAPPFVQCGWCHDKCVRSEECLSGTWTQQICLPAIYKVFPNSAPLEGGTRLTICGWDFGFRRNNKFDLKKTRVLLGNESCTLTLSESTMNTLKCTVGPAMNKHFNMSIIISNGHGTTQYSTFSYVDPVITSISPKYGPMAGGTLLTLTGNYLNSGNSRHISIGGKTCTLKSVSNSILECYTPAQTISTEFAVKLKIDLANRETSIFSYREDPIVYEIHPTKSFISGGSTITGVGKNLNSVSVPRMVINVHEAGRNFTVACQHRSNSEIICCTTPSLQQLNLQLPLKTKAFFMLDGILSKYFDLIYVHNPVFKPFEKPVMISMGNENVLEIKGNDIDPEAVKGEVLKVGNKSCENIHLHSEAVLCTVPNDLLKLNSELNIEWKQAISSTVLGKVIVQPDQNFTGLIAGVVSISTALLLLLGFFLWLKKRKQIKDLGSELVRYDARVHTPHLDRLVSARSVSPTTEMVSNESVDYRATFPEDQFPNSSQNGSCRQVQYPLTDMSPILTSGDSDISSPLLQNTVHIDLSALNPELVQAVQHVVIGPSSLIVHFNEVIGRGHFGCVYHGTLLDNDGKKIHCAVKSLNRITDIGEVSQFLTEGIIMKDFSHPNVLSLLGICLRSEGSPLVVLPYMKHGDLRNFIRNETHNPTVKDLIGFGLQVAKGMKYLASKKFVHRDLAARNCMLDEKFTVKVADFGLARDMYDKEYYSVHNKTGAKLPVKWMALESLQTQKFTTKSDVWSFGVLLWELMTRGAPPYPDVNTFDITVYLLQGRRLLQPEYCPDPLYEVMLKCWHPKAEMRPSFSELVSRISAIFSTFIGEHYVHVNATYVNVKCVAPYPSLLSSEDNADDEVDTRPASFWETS

[3] = target: full-length human MET (FL-MET) on cells (human) (UniProt P08581); assay: FACS competition, biotin-HGF on MET-transfected HEK-293T cells; antibody at 10 µg/ml
[4] = target: full-length human MET (FL-MET) on cells (human) (UniProt P08581); assay: FACS blocking assay: MET-transfected HEK-293T cells pre-incubated with the agent, then biotin-HGF (blocked ligand) + PE-streptavidin; % cells in gate P2
[5] = target: full-length human MET (FL-MET) on cells (human) (UniProt P08581); assay: FACS blocking assay: MET-transfected HEK-293T cells pre-incubated with the agent, then biotin-HGF (blocked ligand) + PE-streptavidin; inhibition versus the average of the two positive controls
[6] = target: T1, human MET (soluble analyte in Biacore); assay: SPR (Biacore 2000), agent captured by anti-human antibody, human MET injected
Protocol: as §1, §2

[7] = target: full-length human MET (FL-MET) on cells (human) (UniProt P08581); assay: FACS blocking assay: MET-transfected HEK-293T cells pre-incubated with the agent, then biotin-HGF (blocked ligand) + PE-streptavidin; % cells in gate P2; remark: listed apart in the source
[8] = target: full-length human MET (FL-MET) on cells (human) (UniProt P08581); assay: FACS blocking assay: MET-transfected HEK-293T cells pre-incubated with the agent, then biotin-HGF (blocked ligand) + PE-streptavidin; inhibition versus the average of the two positive controls; remark: listed apart in the source

T1 sequence (P08581 25-932 limits assumed): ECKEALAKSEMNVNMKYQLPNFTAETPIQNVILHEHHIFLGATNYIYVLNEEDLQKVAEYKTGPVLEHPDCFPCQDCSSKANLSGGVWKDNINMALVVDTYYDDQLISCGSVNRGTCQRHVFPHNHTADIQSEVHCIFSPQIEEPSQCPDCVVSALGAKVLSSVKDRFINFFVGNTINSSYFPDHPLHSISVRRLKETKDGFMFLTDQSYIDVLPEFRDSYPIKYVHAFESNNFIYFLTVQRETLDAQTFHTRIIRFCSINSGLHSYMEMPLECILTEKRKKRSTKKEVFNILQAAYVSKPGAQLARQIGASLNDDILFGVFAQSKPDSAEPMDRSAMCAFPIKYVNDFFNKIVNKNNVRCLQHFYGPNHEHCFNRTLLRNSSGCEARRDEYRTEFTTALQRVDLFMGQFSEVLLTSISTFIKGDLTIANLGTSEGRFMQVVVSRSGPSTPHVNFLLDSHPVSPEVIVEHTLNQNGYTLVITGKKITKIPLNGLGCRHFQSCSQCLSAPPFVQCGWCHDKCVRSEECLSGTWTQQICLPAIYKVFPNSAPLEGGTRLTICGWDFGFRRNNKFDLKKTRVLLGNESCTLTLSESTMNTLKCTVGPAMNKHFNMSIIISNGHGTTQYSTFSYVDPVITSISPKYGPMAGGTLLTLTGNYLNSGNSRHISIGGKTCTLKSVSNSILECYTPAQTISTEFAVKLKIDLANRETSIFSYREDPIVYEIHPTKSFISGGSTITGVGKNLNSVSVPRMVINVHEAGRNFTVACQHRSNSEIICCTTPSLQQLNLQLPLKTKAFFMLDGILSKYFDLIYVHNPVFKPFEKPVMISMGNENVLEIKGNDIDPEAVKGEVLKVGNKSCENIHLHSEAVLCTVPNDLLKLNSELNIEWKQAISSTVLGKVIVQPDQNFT

B1: anti-MET/FZD8-Fc bispecific agent 315B6 (bispecific antibody, human IgG2, kappa)
heavy: QVQLQESGPGLVKPSETLSLTCTVTGTTITASYAWSWIRQPPGKGLEWMGYISYSGGTDYNPSLKSRITISRDTFKNQFSLKLSSVTAADTATYYCARKGAYWGQGTLVTVSSASTKGPSVFPLAPCSRSTSESTAALGCLVKDYFPEPVTVSWNSGALTSGVHTFPAVLQSSGLYSLSSVVTVPSSNFGTQTYTCNVDHKPSNTKVDKTVERKCCVECPPCPAPPVAGPSVFLFPPKPKDTLMISRTPEVTCVVVDVSHEDPEVQFNWYVDGVEVHNAKTKPREEQFNSTFRVVSVLTVVHQDWLNGKEYKCKVSNKGLPAPIEKTISKTKGQPREPQVYTLPPSREKMTKNQVSLTCLVKGFYPSDIAVEWESNGQPENNYKTTPPMLKSDGSFFLYSKLTVDKSRWQQGNVFSCSVMHEALHNHYTQKSLSLSPGK
light: DIVLTQSPATLSASPGEKVTLTCSASSSVSSSYLYWYQQKPGQAPKLLIYSTSNLASGVPARFSGSGSGTSYSLTISSLEPEDFATYYCHQWSSYPYTFGGGTKLEIKRTVAAPSVFIFPPSDEQLKSGTASVVCLLNNFYPREAKVQWKVDNALQSGNSQESVTEQDSKDSTYSLSSTLTLSKADYEKHKVYACEVTHQGLSSPVTKSFNRGEC
chain: ASAKELACQEITVPLCKGIGYNYTYMPNQFNHDTQDEAGLEVHQFWPLVEIQCSPDLKFFLCSMYTPICLEDYKKPLPPCRSVCERAKAGCAPLMRQYGFAWPDRMRCDRLPEQGNPDTLCMDYNRTDLTTTKVDKTVERKSCVECPPCPAPPVAGPSVFLFPPKPKDTLMISRTPEVTCVVVDVSHEDPEVQFNWYVDGVEVHNAKTKPREEQFNSTFRVVSVLTVVHQDWLNGKEYKCKVSNKGLPAPIEKTISKTKGQPREPQVYTLPPSREEMTKNQVSLTCLVEGFYPSDIAVEWESNGQPENNYKTTPPMLDSDGSFFLYSELTVDKSRWQQGNVFSCSVMHEALHNHYTQKSLSLSPGK
notes: Heterodimer of a monovalent 73R009 arm (heavy + light) and a FZD8 Fri-Fc fusion arm; plasmids ATCC PTA-13609, PTA-13610, PTA-13611; also called bispecific anti-MET/FZD8-Fc agent
Kd [6]: 1.8 nM

B3: antibody 73R009 (bivalent "parental" antibody) (antibody, human IgG2, kappa, V domains shown)
VH: QVQLQESGPGLVKPSETLSLTCTVTGTTITASYAWSWIRQPPGKGLEWMGYISYSGGTDYNPSLKSRITISRDTFKNQFSLKLSSVTAADTATYYCARKGAYWGQGTLVTVSS
VL: DIVLTQSPATLSASPGEKVTLTCSASSSVSSSYLYWYQQKPGQAPKLLIYSTSNLASGVPARFSGSGSGTSYSLTISSLEPEDFATYYCHQWSSYPYTFGGGTKLEIKR
notes: Humanized, bivalent; also called humanized anti-MET monoclonal antibody
Kd [1]: 1.1 nM

Other lines, results leading:

Kd [1]: 7.2 nM
percent reduction of HGF binding to MET [2]: 28%
percent reduction of HGF binding to MET [3]: 70%
% Binding of HGF at 0.16 ug/ml agent [4]: 14.3%
% Binding of HGF at 0.3 ug/ml agent [4]: 10.6%
% Binding of HGF at 0.625 ug/ml agent [4]: 12%
% Binding of HGF at 1.25 ug/ml agent [4]: 8.54%
% Binding of HGF at 2.5 ug/ml agent [4]: 9.61%
% Binding of HGF at 5 ug/ml agent [4]: 6.67%
% Binding of HGF at 10 ug/ml agent [4]: 6.31%
% Inhibition of HGF binding at 0.3 ug/ml agent [5]: 47%
% Inhibition of HGF binding at 0.625 ug/ml agent [5]: 40%
% Inhibition of HGF binding at 1.25 ug/ml agent [5]: 57%
% Inhibition of HGF binding at 2.5 ug/ml agent [5]: 52%
% Inhibition of HGF binding at 5 ug/ml agent [5]: 67%
Molecule: monovalent anti-MET antibody 5D5

% Binding of HGF at 0.16 ug/ml agent [7]: 8.72%
% Binding of HGF at 0.3 ug/ml agent [7]: 9.71%
% Binding of HGF at 0.625 ug/ml agent [7]: 8.03%
% Binding of HGF at 1.25 ug/ml agent [7]: 7.7%
% Binding of HGF at 2.5 ug/ml agent [7]: 7.44%
% Binding of HGF at 5 ug/ml agent [7]: 7.77%
% Binding of HGF at 10 ug/ml agent [7]: 5.51%
% Inhibition of HGF binding at 0.3 ug/ml agent [8]: 52%
% Inhibition of HGF binding at 0.625 ug/ml agent [8]: 60%
% Inhibition of HGF binding at 1.25 ug/ml agent [8]: 62%
% Inhibition of HGF binding at 2.5 ug/ml agent [8]: 63%
% Inhibition of HGF binding at 5 ug/ml agent [8]: 61%
Kd [1]: 1.4 nM
percent reduction of HGF binding to MET [2]: 56%
percent reduction of HGF binding to MET [3]: 72%
B2: monovalent version of anti-MET antibody 73R009 (antibody, part only; not given: monovalent constant regions and partner arm, V domains shown, not shown: another chain or arm of the molecule; a dimerising Fc or GST)
VH: QVQLQESGPGLVKPSETLSLTCTVTGTTITASYAWSWIRQPPGKGLEWMGYISYSGGTDYNPSLKSRITISRDTFKNQFSLKLSSVTAADTATYYCARKGAYWGQGTLVTVSS
VL: DIVLTQSPATLSASPGEKVTLTCSASSSVSSSYLYWYQQKPGQAPKLLIYSTSNLASGVPARFSGSGSGTSYSLTISSLEPEDFATYYCHQWSSYPYTFGGGTKLEIK
